Where a chain is given by its changes, count along the chain named. One block for each binder: values may come before it.
How the values were obtained:
human CLDN18.2 [1] = molecular target: human CLDN18.2 (human); assay: cell-based or functional assay
human CLDN18.2 [2] = molecular target: human CLDN18.2 (human); assay: cell-based or functional assay; remark: listed apart in the source
human CLDN18.2 [3] = molecular target: T1, human CLDN18.2 (human); assay: imaging cytometry (% fluorescent cells), HEK293T-hCLDN18.2 cells
T1 construct: over-expressed on HEK293T or OCUM-1 cells by lentivirus; KATO-III and NUGC4 gastric cancer cells express it naturally; also called hCLDN18.2; hCLDNA18.2
Procedure: (§1) 10,000 cells were plated in 100 μL of DMEM containing 10% FBS per well in a flat-bottomed 96-well plate. After the cells adhered or were settled to the bottom of the wells overnight, the supernatant was removed on the next day. 3-Fold gradient dilution of antibody was performed by diluting 1/3 of the total volume (i.e., 100 μL) in 200 μL of DMEM. 100 μL of the diluted antibody (the supernatants of fused clones or subclones was used in the screening) was added to each well of the cell plate, 100 μL of DMEM was added to the corresponding negative control well, and incubation was carried out for 1 hour at room temperature. After removing the supernatant, 100 μL of secondary antibody (5 μg/mL, diluted in DMEM) was added to each well, and incubated at room temperature for 0.5 hours. The supernatant was removed after staining, followed by washing with PBS once. 100 μL of PBS was added to each well, and then reading was carried out on the cytometer.
(§2) A full-field scanning cytometer (Nexcelom, Celigo® Image Cytometer) was used to measure the readings of the experimental plate. During the measurement, high-speed scanning imaging of the cells in the well was simultaneously performed in the green fluorescent channel corresponding to the secondary antibody and in the bright field channel. The cells that bound the antibody were counted in the image obtained from the green fluorescent channel under the parameters set in accordance with the morphology and fluorescence intensity of the fluorescently labeled cells, and the adhered cells were counted in the image obtained from the bright field channel under the parameters set in accordance with the morphology of the cells. […] The data analysis was performed using GraphPad.

human CLDN18.2 [4] = molecular target: T1, human CLDN18.2; assay: cell-based or functional assay; remark: listed apart in the source
human CLDN18.1 [5] = molecular target: T2, human CLDN18.1 (human, UniProt P56856 1-261); assay: imaging cytometry (% fluorescent cells), HEK293-hCLDN18.1 cells
T2 construct: over-expressed on HEK293T or CHOS cells by lentivirus; also called hCLDN18.1
T2 sequence (P56856 whole entry): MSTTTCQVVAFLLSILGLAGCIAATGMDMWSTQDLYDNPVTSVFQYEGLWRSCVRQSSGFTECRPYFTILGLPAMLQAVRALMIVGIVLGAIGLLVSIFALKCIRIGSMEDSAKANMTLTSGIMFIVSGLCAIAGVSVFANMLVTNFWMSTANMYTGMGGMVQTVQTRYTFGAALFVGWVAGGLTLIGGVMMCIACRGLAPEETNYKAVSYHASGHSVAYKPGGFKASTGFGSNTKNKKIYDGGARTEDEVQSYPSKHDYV
Text: (§3) HEK293T-hCLDN18.2 and OCUM-1-hCLDN18.2 expressing human CLDN18.2 (hCLDN18.2), or HEK293T-mCLDN18.2 expressing mouse CLDN18.2 (mCLDN18.2) and the corresponding negative control cell line HEK293T were used; or HEK293T-hCLDN18.1 and CHOS-hCLDN18.1 expressing human CLDN18.1 (hCLDN18.1) were used. DyLight488 goat anti-mouse IgG (Abcam, Catalog No. ab97015) or DyLight488 goat anti-human IgG (Abcam, Catalog No. ab97003) was used as secondary antibody. Binding curves were generated by using the following method.
(§4) 10,000 cells were plated in 100 μL of DMEM containing 10% FBS per well in a flat-bottomed 96-well plate. After the cells adhered or were settled to the bottom of the wells overnight, the supernatant was removed on the next day. […] 100 μL of PBS was added to each well, and then reading was carried out on the cytometer.
(§5) A full-field scanning cytometer (Nexcelom, Celigo® Image Cytometer) was used to measure the readings of the experimental plate. […] The cells that bound the antibody were counted in the image obtained from the green fluorescent channel under the parameters set in accordance with the morphology and fluorescence intensity of the fluorescently labeled cells, and the adhered cells were counted in the image obtained from the bright field channel under the parameters set in accordance with the morphology of the cells.

human CLDN18.1 [6] = molecular target: T2, human CLDN18.1; assay: imaging cytometry (% fluorescent cells), CHOS-hCLDN18.1 cells
Text: as §3, §4, §5

human CLDN18.2 [7] = molecular target: T1, human CLDN18.2; assay: imaging cytometry (% fluorescent cells), OCUM1-hCLDN18.2 cells
Text: as §3, §1
(§6) A full-field scanning cytometer (Nexcelom, Celigo® Image Cytometer) was used to measure the readings of the experimental plate. During the measurement, high-speed scanning imaging of the cells in the well was simultaneously performed in the green fluorescent channel corresponding to the secondary antibody and in the bright field channel. The cells that bound the antibody were counted in the image obtained from the green fluorescent channel under the parameters set in accordance with the morphology and fluorescence intensity of the fluorescently labeled cells, and the adhered cells were counted in the image obtained from the bright field channel under the parameters set in accordance with the morphology of the cells.

mouse CLDN18.2 = molecular target: T3, mouse CLDN18.2 (mouse, UniProt P56857 10-264); assay: imaging cytometry (% fluorescent cells), HEK293-mCLDN18.2 cells
T3 construct: over-expressed on HEK293T cells by lentivirus; also called mCLDN18.2; murine CLDN18.2
T3 chain: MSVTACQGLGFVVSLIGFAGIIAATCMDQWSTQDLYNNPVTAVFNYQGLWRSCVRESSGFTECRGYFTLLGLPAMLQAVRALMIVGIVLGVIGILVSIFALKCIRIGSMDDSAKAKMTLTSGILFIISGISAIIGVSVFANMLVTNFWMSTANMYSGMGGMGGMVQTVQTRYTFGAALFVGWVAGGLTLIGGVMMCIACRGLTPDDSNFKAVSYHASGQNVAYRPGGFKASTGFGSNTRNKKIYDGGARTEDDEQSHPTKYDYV
Text: as §3, §1, §6

human CLDN18.2 [8] = molecular target: T1, human CLDN18.2; assay: imaging cytometry (% fluorescent cells), HEK293-hCLDN18.2 cells
Text: as §3, §1, §6

human CLDN18.2 [9] = molecular target: T1, human CLDN18.2; assay: cell-based or functional assay; remark: listed apart in the source
human CLDN18.2 [10] = molecular target: T1, human CLDN18.2; assay: imaging cytometry (% fluorescent cells), HEK293T-hCLDN18.2 cells; remark: listed apart in the source
Procedure: as §1, §2

human CLDN18.2 [11] = molecular target: T1, human CLDN18.2; assay: cell-based or functional assay; remark: listed apart in the source

ADCC EC50, HEK293T-hCLDN18.2 target cells, human PBMC effectors (human CLDN18.2 [1]): 0.0197 µg/mL
CDC EC50, HEK293T-hCLDN18.2 target cells, human serum (human CLDN18.2 [2]): 5.25 µg/mL
EC50 (human CLDN18.2 [3]): 0.283 µg/mL
Internalization percentage (%), HEK293T-hCLDN18.2 cells, flow cytometry, 10 µg/mL antibody (human CLDN18.2 [4]): 9.3%
B1: 5F9-chIgG1 (antibody, V domains shown)
VH: QVQLQQSGAELVKPGASVKLSCKASGYTFTSYWMHWVKQRPGQGLEWIGMIHPNSVSTNYNEKFKSKATLTVDKSSSTAYMQLSSLTSEDSAVYYCAVYFDYWGQGTTLTVSS
VL: DIQVTQSPSSLSASLGERVSLTCRASQDIGSSLNWLQQEPDGTIKRLIYASSSLNSGVPKRFSVSRSGSDYSLTISSLESEDFVDYYCLQYATSPPTFGGGTKLEIKR
notes: human-mouse chimeric antibody, human IgG1/kappa constant regions

Internalization percentage (%), HEK293T-hCLDN18.2 cells, flow cytometry, 10 µg/mL antibody (human CLDN18.2 [4]): 28.7%
B2: 1D10-chIgG1 (antibody, V domains shown)
VH: B1 VH with S7P, H52Y, V56G, T58I, S66N, Y95F, A97S
VL: B1 VL with V4G, S51T, N55D, T93S

EC50 (human CLDN18.1 [5]): 0.041 µg/mL
EC50 (human CLDN18.1 [6]): 0.092 µg/mL
EC50 (human CLDN18.2 [7]): 0.026 µg/mL
EC50 (mouse CLDN18.2): 0.691 µg/mL
EC50 (human CLDN18.2 [8]): 0.018 µg/mL
B3: 1D10 (antibody, V domains shown)
VH: B1 VH with S7P, H52Y, V56G, T58I, S66N, Y95F, A97S
VL: DIQGTQSPSSLSASLGERVSLTCRASQDIGSSLNWLQQEPDGTIKRLIYATSSLDSGVPKRFSVSRSGSDYSLTISSLESEDFVDYYCLQYASSPPTFGGGTKLEIK
notes: murine monoclonal antibody purified from hybridoma culture supernatant; also called ID10

EC50 (human CLDN18.1 [5]): 0.714 µg/mL
EC50 (human CLDN18.2 [7]): 0.068 µg/mL
EC50 (mouse CLDN18.2): 0.179 µg/mL
EC50 (human CLDN18.2 [8]): 0.091 µg/mL
B4: 5F9 (antibody, V domains shown)
VH: B1 VH
VL: B3 VL with G4V, T51S, D55N, S93T
notes: murine monoclonal antibody purified from hybridoma culture supernatant

CDC EC50, KATO-III target cells, human serum (human CLDN18.2 [9]): 0.33 µg/mL
EC50 (human CLDN18.2 [10]): 0.051 µg/mL
ADCC EC50, KATO-III target cells, human PBMC effectors (human CLDN18.2 [11]): 0.0028 µg/mL
B5: 7004-09hu09 (antibody, human IgG1, kappa, V domains shown)
VH: QVQLVQSGAEVKKPGASVKVSCKASGYTFTSYNMHWVRQAPGQGLEWMGTIYPGNGDTSYNQKFQGRVTMTRDKSTSTVYMELSSLRSEDTAVYFCARGGYYGNSLDYWGQGTLVTVSA
VL: DIVMTQSPDSLAVSLGERATINCKSSQSLLNSGNQKNYLAWYQQKPGQPPKLLIYWASTRESGVPDRFSGSGSGTDFTLTISSLQAEDVAVYYCQNAYYYPFTFGQGTKLEIKR
notes: humanized antibody of murine 44F7, human IgG1/kappa constant regions

CDC EC50, KATO-III target cells, human serum (human CLDN18.2 [9]): 0.27 µg/mL
EC50 (human CLDN18.2 [10]): 0.047 µg/mL
ADCC EC50, KATO-III target cells, human PBMC effectors (human CLDN18.2 [11]): 0.0033 µg/mL
B6: 7004-09hu10 (antibody, human IgG1, kappa, V domains shown)
VH: B5 VH with N33Y
VL: B5 VL with A40T
notes: as for B5

CDC EC50, KATO-III target cells, human serum (human CLDN18.2 [9]): 0.27 µg/mL
EC50 (human CLDN18.2 [10]): 0.008 µg/mL
ADCC EC50, KATO-III target cells, human PBMC effectors (human CLDN18.2 [11]): 0.0061 µg/mL
B7: 7004-09hu15 (antibody, human IgG1, kappa, V domains shown)
VH: B5 VH with N33Y
VL: B5 VL with L29V
notes: as for B5

From patent publication US20210403552A1 (SHANGHAI GENBASE BIOTECHNOLOGY, published 2021)
